Source: patent publication US20050118674A1, “Engineering of Controlled Deamidation Rates in Peptides, Proteins, and Similar Structures” (priority 2003, published 2005)
Where no end group is shown, it is not given here.

Test: First-order nonenzymatic deamidation of pentapeptides in Tris buffer
Type: physicochemical
Conditions: pH 7.4, 37.0° C., 0.15 M Tris HCl; Asn pentapeptides
Method: One of the discoveries made was that the sequence dependence of deamidation is much richer and covers a wider range than previously thought. In 37° C., pH 7.4, 0.15 M Tris buffer, the combination of XxxAsnYyy and XxxGlnYyy sequences where Xxx and Yyy are any of the naturally occuring amino acids covers a range from less than 1 day to over 15,000 days with the entire range in between available.
It is based on pentapeptide rates measure in 37° C., pH 7.4, 0.15 M Tris buffer. The applicability of a pentapeptide model to sequence dependence was verified in a separate set of experiments. All values listed in this table are experimental except for the four values in boxes, which were estimated from the rest of the data.
It is also based on pentapeptide rates measure in 37° C., pH 7.4, 0.15 M Tris buffer. In this case, the 52 values shown in bold were measured, and the rest of the values were derived from surface fitting.
Deamidation rates are affected by a wide variety of parameters, including, pH, Temperature, Ionic Strength, and Buffer Ions. These rates are measured under pH and Temperature conditions that are applicable to biological systems. The buffer type and concentration were chosen to minimize ion affects to the extent possible given the experimental limitations. Modification of these conditions will change the rates in Tables 1 and 2. As long as the conditions are not taken to extremes (i.e. high temperature, or strongly acidic or basic conditions) the qualitative sequence dependence should remain the same and the rates reported here can be used with necessary adjustments.
For “GlyAlaAsnAlaGly (GANAG; printed: GlyAlaAsnAlaGly)”, the “First-Order Deamidation Halftimes of GlyXxxAsnYyyGly” value was 22.5 days.
In the case of GlyAlaAsnAmCysGly, the “First-Order Deamidation Halftimes of GlyXxxAsnYyyGly” value is reported as 40.6 days.
In the case of “GlyAlaAsnArgGly (GANRG; printed: GlyAlaAsnArgGly)”, the “First-Order Deamidation Halftimes of GlyXxxAsnYyyGly” value is reported as 62.4 days.
In the case of “GlyAlaAsnAspGly (GANDG; printed: GlyAlaAsnAspGly)”, the “First-Order Deamidation Halftimes of GlyXxxAsnYyyGly” value is reported as 31.9 days.
With “GlyAlaAsnCysGly (GANCG; printed: GlyAlaAsnCysGly)” the “First-Order Deamidation Halftimes of GlyXxxAsnYyyGly” value was 63.7 days.
With “GlyAlaAsnGluGly (GANEG; printed: GlyAlaAsnGluGly)” the “First-Order Deamidation Halftimes of GlyXxxAsnYyyGly” value was 74.1 days.
With “GlyAlaAsnGlyGly (GANGG; printed: GlyAlaAsnGlyGly)” the “First-Order Deamidation Halftimes of GlyXxxAsnYyyGly” value was 1.05 days.
For “GlyAlaAsnHisGly (GANHG; printed: GlyAlaAsnHisGly)”, the “First-Order Deamidation Halftimes of GlyXxxAsnYyyGly” value was 9.3 days.
In the case of “GlyAlaAsnIleGly (GANIG; printed: GlyAlaAsnIleGly)”, the “First-Order Deamidation Halftimes of GlyXxxAsnYyyGly” value is reported as 300 days.
For “GlyAlaAsnLeuGly (GANLG; printed: GlyAlaAsnLeuGly)”, the “First-Order Deamidation Halftimes of GlyXxxAsnYyyGly” value was 124 days.
With “GlyAlaAsnLysGly (GANKG; printed: GlyAlaAsnLysGly)” the “First-Order Deamidation Halftimes of GlyXxxAsnYyyGly” value was 55.9 days.
In the case of “GlyAlaAsnMetGly (GANMG; printed: GlyAlaAsnMetGly)”, the “First-Order Deamidation Halftimes of GlyXxxAsnYyyGly” value is reported as 59.2 days.
With “GlyAlaAsnPheGly (GANFG; printed: GlyAlaAsnPheGly)” the “First-Order Deamidation Halftimes of GlyXxxAsnYyyGly” value was 65.6 days.
In the case of “GlyAlaAsnProGly (GANPG; printed: GlyAlaAsnProGly)”, the “First-Order Deamidation Halftimes of GlyXxxAsnYyyGly” value is reported as 7370 days.
For “GlyAlaAsnSerGly (GANSG; printed: GlyAlaAsnSerGly)”, the “First-Order Deamidation Halftimes of GlyXxxAsnYyyGly” value was 14.9 days.
In the case of “GlyAlaAsnThrGly (GANTG; printed: GlyAlaAsnThrGly)”, the “First-Order Deamidation Halftimes of GlyXxxAsnYyyGly” value is reported as 43.5 days.
With “GlyAlaAsnTrpGly (GANWG; printed: GlyAlaAsnTrpGly)” the “First-Order Deamidation Halftimes of GlyXxxAsnYyyGly” value was 130 days.
With “GlyAlaAsnTyrGly (GANYG; printed: GlyAlaAsnTyrGly)” the “First-Order Deamidation Halftimes of GlyXxxAsnYyyGly” value was 73.9 days.
For “GlyAlaAsnValGly (GANVG; printed: GlyAlaAsnValGly)”, the “First-Order Deamidation Halftimes of GlyXxxAsnYyyGly” value was 254 days.
For “GlyAmCysAsnAlaGly (CNAG; not fully specified (N-terminus); printed as GlyAmCysAsnAlaGly)”, the “First-Order Deamidation Halftimes of GlyXxxAsnYyyGly” value was 21.5 days.
For GlyAmCysAsnAmCysGly, the “First-Order Deamidation Halftimes of GlyXxxAsnYyyGly” value was 39.3 days.
For “GlyAmCysAsnArgGly (CNRG; not fully specified (N-terminus); printed as GlyAmCysAsnArgGly)”, the “First-Order Deamidation Halftimes of GlyXxxAsnYyyGly” value was 58.8 days.
With “GlyAmCysAsnAspGly (CNDG; not fully specified (N-terminus); printed as GlyAmCysAsnAspGly)” the “First-Order Deamidation Halftimes of GlyXxxAsnYyyGly” value was 32.9 days.
In the case of “GlyAmCysAsnGluGly (CNEG; not fully specified (N-terminus); printed as GlyAmCysAsnGluGly)”, the “First-Order Deamidation Halftimes of GlyXxxAsnYyyGly” value is reported as 45 days.
For “GlyAmCysAsnGlyGly (CNGG; not fully specified (N-terminus); printed as GlyAmCysAsnGlyGly)”, the “First-Order Deamidation Halftimes of GlyXxxAsnYyyGly” value was 1.14 days.
With “GlyAmCysAsnHisGly (CNHG; not fully specified (N-terminus); printed as GlyAmCysAsnHisGly)” the “First-Order Deamidation Halftimes of GlyXxxAsnYyyGly” value was 10.9 days.
For “GlyAmCysAsnIleGly (CNIG; not fully specified (N-terminus); printed as GlyAmCysAsnIleGly)”, the “First-Order Deamidation Halftimes of GlyXxxAsnYyyGly” value was 250 days.
With “GlyAmCysAsnLeuGly (CNLG; not fully specified (N-terminus); printed as GlyAmCysAsnLeuGly)” the “First-Order Deamidation Halftimes of GlyXxxAsnYyyGly” value was 100 days.
In the case of “GlyAmCysAsnLysGly (CNKG; not fully specified (N-terminus); printed as GlyAmCysAsnLysGly)”, the “First-Order Deamidation Halftimes of GlyXxxAsnYyyGly” value is reported as 48.9 days.
For “GlyAmCysAsnMetGly (CNMG; not fully specified (N-terminus); printed as GlyAmCysAsnMetGly)”, the “First-Order Deamidation Halftimes of GlyXxxAsnYyyGly” value was 56.5 days.
With “GlyAmCysAsnPheGly (CNFG; not fully specified (N-terminus); printed as GlyAmCysAsnPheGly)” the “First-Order Deamidation Halftimes of GlyXxxAsnYyyGly” value was 63.3 days.
For “GlyAmCysAsnProGly (CNPG; not fully specified (N-terminus); printed as GlyAmCysAsnProGly)”, the “First-Order Deamidation Halftimes of GlyXxxAsnYyyGly” value was 3900 days.
For “GlyAmCysAsnSerGly (CNSG; not fully specified (N-terminus); printed as GlyAmCysAsnSerGly)”, the “First-Order Deamidation Halftimes of GlyXxxAsnYyyGly” value was 15.4 days.
For “GlyAmCysAsnThrGly (CNTG; not fully specified (N-terminus); printed as GlyAmCysAsnThrGly)”, the “First-Order Deamidation Halftimes of GlyXxxAsnYyyGly” value was 41.7 days.
With “GlyAmCysAsnTrpGly (CNWG; not fully specified (N-terminus); printed as GlyAmCysAsnTrpGly)” the “First-Order Deamidation Halftimes of GlyXxxAsnYyyGly” value was 81.3 days.
In the case of “GlyAmCysAsnTyrGly (CNYG; not fully specified (N-terminus); printed as GlyAmCysAsnTyrGly; also: glycinamide shown before Cys, linkage not given here)”, the “First-Order Deamidation Halftimes of GlyXxxAsnYyyGly” value is reported as 78.8 days.
In the case of “GlyAmCysAsnValGly (CNVG; not fully specified (N-terminus); printed as GlyAmCysAsnValGly; also: glycinamide shown before Cys, linkage not given here)”, the “First-Order Deamidation Halftimes of GlyXxxAsnYyyGly” value is reported as 215 days.
For “GlyArgAsnAlaGly (GRNAG; printed: GlyArgAsnAlaGly)”, the “First-Order Deamidation Halftimes of GlyXxxAsnYyyGly” value was 24.4 days.
For GlyArgAsnAmCysGly, the “First-Order Deamidation Halftimes of GlyXxxAsnYyyGly” value was 42.3 days.
In the case of “GlyArgAsnArgGly (GRNRG; printed: GlyArgAsnArgGly)”, the “First-Order Deamidation Halftimes of GlyXxxAsnYyyGly” value is reported as 67.4 days.
For “GlyArgAsnAspGly (GRNDG; printed: GlyArgAsnAspGly)”, the “First-Order Deamidation Halftimes of GlyXxxAsnYyyGly” value was 34.7 days.
With “GlyArgAsnCysGly (GRNCG; printed: GlyArgAsnCysGly)” the “First-Order Deamidation Halftimes of GlyXxxAsnYyyGly” value was 50.5 days.
With “GlyArgAsnGluGly (GRNEG; printed: GlyArgAsnGluGly)” the “First-Order Deamidation Halftimes of GlyXxxAsnYyyGly” value was 68.3 days.
With “GlyArgAsnGlyGly (GRNGG; printed: GlyArgAsnGlyGly)” the “First-Order Deamidation Halftimes of GlyXxxAsnYyyGly” value was 1.00 days.
For “GlyArgAsnHisGly (GRNHG; printed: GlyArgAsnHisGly)”, the “First-Order Deamidation Halftimes of GlyXxxAsnYyyGly” value was 10.0 days.
In the case of “GlyArgAsnIleGly (GRNIG; printed: GlyArgAsnIleGly)”, the “First-Order Deamidation Halftimes of GlyXxxAsnYyyGly” value is reported as 311 days.
In the case of “GlyArgAsnLeuGly (GRNLG; printed: GlyArgAsnLeuGly)”, the “First-Order Deamidation Halftimes of GlyXxxAsnYyyGly” value is reported as 128 days.

Same assay, conditions: pH 7.4, 37.0 ° C., 0.15 M Tris HCl; Gln pentapeptides; 52 values measured, rest derived from surface fitting
With “GlyAlaGlnAlaGly (GAQAG; printed: GlyAlaGlnAlaGly)” the “First-Order Deamidation Halftimes of GlyXxxGlnYyyGly” value was 5300 days.
For “GlyAlaGlnArgGly (GAQRG; printed: GlyAlaGlnArgGly)”, the “First-Order Deamidation Halftimes of GlyXxxGlnYyyGly” value was 7200 days.
In the case of “GlyAlaGlnAspGly (GAQDG; printed: GlyAlaGlnAspGly)”, the “First-Order Deamidation Halftimes of GlyXxxGlnYyyGly” value is reported as 7400 days.
With “GlyAlaGlnCysGly (GAQCG; printed: GlyAlaGlnCysGly)” the “First-Order Deamidation Halftimes of GlyXxxGlnYyyGly” value was 1900 days.
For “GlyAlaGlnGluGly (GAQEG; printed: GlyAlaGlnGluGly)”, the “First-Order Deamidation Halftimes of GlyXxxGlnYyyGly” value was 7300 days.
For “GlyAlaGlnGlyGly (GAQGG; printed: GlyAlaGlnGlyGly)”, the “First-Order Deamidation Halftimes of GlyXxxGlnYyyGly” value was 610 days.
With “GlyAlaGlnHisGly (GAQHG; printed: GlyAlaGlnHisGly)” the “First-Order Deamidation Halftimes of GlyXxxGlnYyyGly” value was 5500 days.
For “GlyAlaGlnIleGly (GAQIG; printed: GlyAlaGlnIleGly)”, the “First-Order Deamidation Halftimes of GlyXxxGlnYyyGly” value was 6200 days.
With “GlyAlaGlnLeuGly (GAQLG; printed: GlyAlaGlnLeuGly)” the “First-Order Deamidation Halftimes of GlyXxxGlnYyyGly” value was 6100 days.
For “GlyAlaGlnLysGly (GAQKG; printed: GlyAlaGlnLysGly)”, the “First-Order Deamidation Halftimes of GlyXxxGlnYyyGly” value was 5700 days.
In the case of “GlyAlaGlnMetGly (GAQMG; printed: GlyAlaGlnMetGly)”, the “First-Order Deamidation Halftimes of GlyXxxGlnYyyGly” value is reported as 4400 days.
In the case of “GlyAlaGlnPheGly (GAQFG; printed: GlyAlaGlnPheGly)”, the “First-Order Deamidation Halftimes of GlyXxxGlnYyyGly” value is reported as 7500 days.
For “GlyAlaGlnProGly (GAQPG; printed: GlyAlaGlnProGly)”, the “First-Order Deamidation Halftimes of GlyXxxGlnYyyGly” value was 9300 days.
With “GlyAlaGlnSerGly (GAQSG; printed: GlyAlaGlnSerGly)” the “First-Order Deamidation Halftimes of GlyXxxGlnYyyGly” value was 5200 days.
In the case of “GlyAlaGlnThrGly (GAQTG; printed: GlyAlaGlnThrGly)”, the “First-Order Deamidation Halftimes of GlyXxxGlnYyyGly” value is reported as 5100 days.
With “GlyAlaGlnTrpGly (GAQWG; printed: GlyAlaGlnTrpGly)” the “First-Order Deamidation Halftimes of GlyXxxGlnYyyGly” value was 14000 days.
For “GlyAlaGlnTyrGly (GAQYG; printed: GlyAlaGlnTyrGly)”, the “First-Order Deamidation Halftimes of GlyXxxGlnYyyGly” value was 10000 days.
For “GlyAlaGlnValGly (GAQVG; printed: GlyAlaGlnValGly)”, the “First-Order Deamidation Halftimes of GlyXxxGlnYyyGly” value was 6400 days.
